Assay: yeast display, Sf9 membrane polyspecificity reagent, FACS + sequencing; frameworks hold sequencing errors
Procedure, shortened: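 Nanobodies from a synthetic yeast display library (Saccharomyces cerevisiae BJ5465), induced 36–48 hours with galactose, were stained 1 hour at 4 °C with 10% biotinylated, detergent-solubilized Sf9 membrane reagent, enriched on streptavidin microbeads, then FACS-sorted. Anti-HA (expression) and streptavidin (reagent binding) fluorescence set low and high (top ~1%) gates. Polyreactivity labels come from the gate of origin. Genes were colony-PCR amplified, MiSeq 2 × 250 sequenced and filtered by CDR length.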

| Sequence | polyreactivity (PSR sort gate) |
| --- | --- |
| QVQLVESGGGLVQAGGSLRLSCAASGSNISNYVMGWYRQAPWKERELVAAITRRGGRTYYADSVKGRFTISRDYAKNTFYLQMNSLKPEDTAVYYCAKRHVGSRYLFEYWGQGTQVTVSS | low polyreactivity |
| QVQLVESGGGLVQAGGSLRLSCAASGSIFVGYAMGWYRQAPGKERELVAAISRSGGRTYYADSVKGRFTISRDNAKNTVYLQMISLKPEDTAVYYCARQRYEYRTTYYYWGQGTQVTVSS | high polyreactivity |
| QVQLVESGGGLVQAGGSLRLSCAASGRIFYANAMGWYRQAPGKERELVAAISSGGSTYYADSVKGRFTISRDNAKNTVYLQMNSLKPEDTAVYYCAALYWVYFYSEYGPWRYDYWGQGTQVTVSS | low polyreactivity |
| QVQLVESGGGLVQAGGSLRLSCAASGSIFGPYAMGWYRQAPGKERELVAAISNGGTTYYADSVKGRFTISRDNAKYTVYLQMNSLKPEDTAVYYCNAEQYLYYILGNYDYWGQGTQVTVSS | low polyreactivity |
| QVQLVESGGGLVQAGGSLRLSCAASGSIFSGYTMGWYRQAPGKERELVAGISYRGGSTYYADSVKGRFTNSRDNAKNTVYLQMNSLKPEDTAVYYCAALYYRRGSLNYEYWGQGTQVTVSS | high polyreactivity |
| QVQLVESGGGLVQAGGSLRLSCAASGRIFRYNTMGWYRQAPGKERELVAAINSSGGRTYYADSVKGRFTISRDNAKNTVYLQMNSLKPEDTSVYYCAAVIYVLSGPGYDYWGQGTQVTVSS | high polyreactivity |
| QVQLVESGGGLVQAGGRLRLSCAASGSTFSFNAMGWYRQAPGKERELVAAIRVSSGTTYYADSVKGRFTISRDNAKNTVYLQMNSLKPEDTAVYYCAARYYYDWRQYGYWGQGTQVTVSS | high polyreactivity |
| QVQLVESGGGLVQAGGSLRLSCAASGRTIDSNAMGWYRQAPGKERELVAAISSDGGSTYYADSVKGRFTISRDNAKNTVYLQMNSLKPEDTAVYYCNKDDPVDGPLYFRKYDYWGQGTQVTVSS | low polyreactivity |
| QVQLVESGGGLVQAGGSLRLSCAASGRILWYNAMGWYRQAPGKERELVAAINRGVSTNYADSVKGRFTISRDNAKNTVYLQMNSLKPEDTEVYYCAAVHDRLWYRSAYDYWRQGTQVTVSS | low polyreactivity |
| QGQLVESGGGLVQAGGNLRLSCAASGSIFSDYTMGWYRQAPGKERELVAVITLSAGSTYYADSVKGRFTISRDNAKNTVYLQMNSLKPEDTAVYYCAADGWYYFGSGVFEYDYWGHGTQVTVSS | low polyreactivity |
| QVQLVESGGGLVQAGGSLRLSCAASGRIFAGYAMGWYRQAPGTERELVATITRGGSTNYADSVKRPFTISRDNAKNTVYLQMNSLKPEDTAVYYCNADIRRHGGYAHEYWGQGTKVTVSS | low polyreactivity |
| QVQLVESGGGLVQAGGSLRLSCAASAFTFRRYVKGWYRQAPGKERELVAAISSGGRTNYADSVKGRFTISRYNAKNTVYLQMNSLKPEDTAVYYCAADRYSSYYVLYDYWGQGTQVSVSS | high polyreactivity |
| QVQLVESGGGLVQAGGSLRLSCAASGIIFVSYAMGWYRQAPGKEWELVADISSGGRTYYADSVKGRFTISRDNAKNTVYLPMNSLKPEDTAVYYCAKVKRDLQYPGLPEVLNREYWGQGTQVTVSS | high polyreactivity |
| EVQLVESGGGLVQAGGSLRLSCAASVSTFGSNAMGWYRQAPGKERELVAAITNGGSTNYADSVKGRFTISRDNEKNTVYLQMNSLKPEDTAVYYCNAVQSAYNKFWIALWGGYWGQGTQVTVSS | low polyreactivity |
| QVQLVESGGGLVQAGGSLRLSCAASGRTFARYAMGWYRQAPGKERELVAVISRTGSTYYADSVKGRFTISRDNAKNTVYLQMNSLKPEDTAVYYCATVYYYLAYGWSYSDMDYWGQGTQVTVSS | high polyreactivity |
| QVQLVESGGGLDQAGGSLRLSCAASGSIFGSYTMGWYRQAPGKERQLVAVINWSGDRTYYADSVKGRFTISRDNAKNTVYLQMNSLKPEDTAVYYCAARERAGYSRIRYNYWGQGTQGTVSS | high polyreactivity |
| QVQLVESGGGLVQAGCSLLLSCDATGNIFRYYFMGWYRQAPGKEREFVAAITTSCGSTYYADSVKGRFTISRDNAKNTVYLQMNSLKQEDTAVYYCAKDYWVPGWAEYDYWGQGTQVTVSS | low polyreactivity |
| QVQLVESGGGLVQAGGSLRLSCAASGRIFYYNAMGWYRPAPGKERELVAAIDWSGGSTYYADSVKGRFTISRDNAKNTVYLQMNSLKPEDTAVYYCNAPFRYVPPEGSGPYDYWGQGTQVTVSS | low polyreactivity |
| QVQLVESGGGLVQAGGSLRLSCAASGSTLYHSTMGWYRKAPGKETELVAAITWSGGSTSYADSVKGRFTISRDNAKNTVYLQMNSLKPEDTAVYYCAADDTPDDSDYWGQGTQVTVSS | low polyreactivity |
| QVQLVESVGGLVQAGGSLRLSCAASGSTFEDNAMGWYRQAPGKERELVAAITTGGGSTYYADSVKGRFTISRDNAKNTVYLQINSLKPEDTEVYYCNAEHGWFGLLFIATANEYDYLGQGTQVTVSS | low polyreactivity |
| QVQLVESGGGLVQAGGSLRLSCAASGYTFSYYAMGWYRQAPGKERELVAAISVRGDSTYYADSVKGRFTISRDYAKNTVYLLMNSLKPEDTAVYYCAARVVRSSYVRYHYWGQGTQVTVSS | high polyreactivity |
| QVQLVESGGGLVQAGGSLRLSCAASGPIFPAYAMGWYRQAPGKERELVASIRRGGITYADSVKGRFTISRDNAKNTVYLQMNSLKPEDTAVYYCNADYRGWGYHMDYWGQGTQVTVSS | low polyreactivity |

| Sequence | polyreactivity (PSR sort gate) |
| --- | --- |
| QVQLVESGGGLVQAGGSLRLSCAASGITFYYYVMGWYRQAPGKERELVASISRGGSTYYADSVKGRFTISRDNAKNTVYLQMNSLKPEDTAVYYCAAAGNRPWSITPFRKRYGYNYWGQGSQVTVSS | high polyreactivity |
| QVQLVESGGGLVQAGGSLRLTCAASGSTFYHNAMGWYRQAPGKERELVAAITTSGGSTYYADSVKGRFTISRDNAKNTVYLQMNSLKPVDTAVYYCNVYRPYLAPYDYWGQGTQVTVSS | low polyreactivity |
| QVQLVESGGVLVQAGGSLRLSCAASGRIFSSYAMGWNRHAPGKERELVATSRRADSTYYADSVKGRFTISRDNAKNTVYLQMNSLKPEDTAVYYCAADTRLSRLIHRYDYWGQGTQVTVSS | low polyreactivity |
| QVQLVESGGVLVQAGGSLRLSCAASGFTFQAYTMGWYRQAPVKERELVAAISRSGGRTYYADSVKGRFTISRDNAKNTVYLQMNSLKPEDTAVYYCAKRTTYSDDYWGQGTQVTVSS | high polyreactivity |
| QVTLVESGGGLVQAGGSLRLSCAASVLIFYSYAMGWYRQAPGKERELVAAISSGTRTYYADSVKGRFTISRDNAKNTVYLQMNSLKPEDTAVYYCAAVDAHKKRYPPSGRLYGYWGHGTQVTVSS | high polyreactivity |
| QVQLVESGGGLVQAGGSLRLSCAASGIIFGVYAMGWYRQAPGKERELVAAIDGNGSSTYYADSVKGRFTISRDNAKNSVYLQMNSLKPEDTAVYYCNKDVARYPYGKFDYWGQGTQVTVSS | low polyreactivity |
| QVQLVESGGGLVQAGGSLRLSCAASGFTFSNNVMGWYREAPGKERELVAAISRRGGSTYYADSVKGRFTISRDNAKNTVYLQMNSLKPEDTAVYYCAATYPYYVDTSPGKDDHWRQGTQVTVSS | high polyreactivity |
| QVQLVESGGGLVQAGGSLRLSCAASGLTLSYTMGWYRQAPGKERELVASITWSGTRTYYADSVKGRFTISRDNAKNTVYLQMNSLKPEDTAVYYCARRSSYGSWGYNYWGQGTQVTVSS | high polyreactivity |
| QVQLEESGGGLVQAGGSLRLSCAASGSTFGPNTMGRYRQAPGKERELVAAISRAGRTYYADSVKGRFTISRDNAKNTVYLQINSLKPEDTAVYYCNAGRSYHWRAGREYDYWGQGTQVTVSS | low polyreactivity |
| QVQLVESGGGLVQAGGSLRLSCAASGRTFYYYTMGWYRQAPGKEREFVAAIRRSGGNTRYADSVKGRFTISRDNAKNTVYLQMNSLKPEDTAVYYCNAGYGYYYGRILQERDYWGQGTQVTVSS | high polyreactivity |
| QVQLVESGGGLVQAGGSLRLSCAASGLTISWNAMGWYRQAPGKERELVAAISSRGGSTYYADSVKGRFKISRDNAKNTVYLQMNSLKPEDTAVYYCAAEGYTYYPVYSTRMYYWGQGTQVTVSS | low polyreactivity |
| QVQLVESGGGLVQAGGSLRLSCAASGSIFESNGMGCYRQAPGKERELVASISNGDITYFADSVKGRFTISRDNAKNTVYLQMNSLKPEDTAVYYCAATLYRNYVIFRYDYSGQGTQVTVSS | low polyreactivity |
| QVQLVESGGGLVQAGGSLRLSCAAYGLTFYGNAMGWYRQAPGKERELVAAISRGGRTYYADSVKGRFTISRDNAKKTVYLQRNSLKPEDTAVYYCATVVSRVKQPFDMDYWGQGTQVTVSA | low polyreactivity |
| QLQLVESGGGLVQEGGSLRISCDASGSTFDDNAMACYRQAPGKERELVAGIDVSGGSTYYADSVKGRFTISRDNAKKTVYLQMTSLTPEDTAVYFCAKGRPGHRTSSVNFNYWGQGTQVTVSS | low polyreactivity |
| QVQLVESGGGLVQAGGSLRLSCAASGSIFKPYAMGWYRQAPGKERELVAAISTRGSSTYYADSVKGRFTISRDNAKNTVYLQMNSLIPEDTAVYYCAKRRYLWGYEYDSWGQGTQVTVSS | high polyreactivity |
| QVQLVESGGGLVQAGGSLRLSCAASGSTFREYAMGWYIQAPGKERELVAAITSRGGSTYYADSVKGRFTISRDNAKNTVYLQMNSLKPEDTAVYYCAADHGTKAEYYYWGQRTQVTVSS | high polyreactivity |
| QVQLVESGGGLVQAGGSLRLSCADSGFTFSSYAMGWYRQAPGKDRELVAAISTRGGSTYYADSVKGRFTISRDYANKTVYLQMNSLKPEDTAVYYCATGGRGGRRYEYWGQGTQVTVSS | low polyreactivity |
| QVQLVESGGGLVQAGGSLRLSCAASGSIFGYNAMGWYRQAPGKERELVAAISLTTGSTYYADSVKGRFTISRDNAKNTVYLQMNCLKPEDTAVYYCAAVDADYYYWGQGTQVTVSS | high polyreactivity |
| QVQLVESGGGLVQAGGSLRLSCAASGSTFKRNAMGWYRPAPGKERELVAAITFSGATTYYADSVKGRFTISRDNAKNTVYLQMNSLKPEDTAVYYCATKAYTTGRYYWGQGTQVTVSS | high polyreactivity |
| QVQLVESGGGLVQAGGRLRLTCAASGYIFDVNAMGWYRHAPGKERELVAAISQRGTRTYYADSVKGRFTISRDNAKNSVYLQMNSLKPEDTAVYFCNRGGWRQYDSWVQGTQVTVSS | high polyreactivity |
| QVQLVESGGGLVQAGGSLRLSCAASGSILDSNAMGWYRQAPGKERELVAAITSGGSTYYADSVKGRFTISRDNAKNTVYLQKNSLKPEDTAVYYCDTPVASVTGYDYWGQGTQVTVSS | low polyreactivity |
